B1: AD-PAP2 [Arabidopsis] / BD-COP1 [Arabidopsis] (parent complex)
chain 1: MEGSSKGLRKGAWTAEEDSLLRLCIDKYGEGKWHQVPLRAGLNRCRKSCRLRWLNYLKPSIKRGRLSNDEVDLLLRLHKLLGNRWSLIAGRLPGRTANDVKNYWNTHLSKKHESSCCKSKMKKKNIISPPTTPVQKIGVFKPRPRSFSVNNGCSHLNGLPEVDLIPSCLGLKKNNVCENSITCNKDDEKDDFVNNLMNGDNMWLENLLGENQEADAIVPEATTAEHGATLAFDVEQLWSLFDGETVELD
chain 2: MEEISTDPVVPAVKPDPRTSSVGEGANRHENDDGGSGGSEIGAPDLDKDLLCPICMQIIKDAFLTACGHSFCYMCIITHLRNKSDCPCCSQHLTNNQLYPNFLLDKLLKKTSARHVSKTASPLDQFREALQRGCDVSIKEVDNLLTLLAERKRKMEQEEAERNMQILLDFLHCLRKQKVDELNEVQTDLQYIKEDINAVERHRIDLYRARDRYSVKLRMLGDDPSTRNAWPHEKNQIGFNSNSLSIRGGNFVGNYQNKKVEGKAQGSSHGLPKKDALSGSDSQSLNQSTVSMARKKRIHAQFNDLQECYLQKRRQLADQPNSKQENDKSVVRREGYSNGLADFQSVLTTFTRYSRLRVIAEIRHGDIFHSANIVSSIEFDRDDELFATAGVSRCIKVFDFSSVVNEPADMQCPIVEMSTRSKLSCLSWNKHEKNHIASSDYEGIVTVWDVTTRQSLMEYEEHEKRAWSVDFSRTEPSMLVSGSDDCKVKVWCTRQEASVINIDMKANICCVKYNPGSSNYIAVGSADHHIHYYDLRNISQPLHVFSGHKKAVSYVKFLSNNELASASTDSTLRLWDVKDNLPVRTFRGHTNEKNFVGLTVNSEYLACGSETNEVYVYHKEITRPVTSHRFGSPDMDDAEEEAGSYFISAVCWKSDSPTMLTANSQGTIKVLVLAA
B2: AD-TCP3 [Arabidopsis] / BD-COP1 [Arabidopsis] (parent complex)
chain 1: MAPDNDHFLDSPSPPLLEMRHHQSATENGGGCGEIVEVQGGHIVRSTGRKDRHSKVCTAKGPRDRRVRLSAPTAIQFYDVQDRLGFDRPSKAVDWLITKAKSAIDDLAQLPPWNPADTLRQHAAAAANAKPRKTKTLISPPPPQPEETEHHRIGEEEDNESSFLPASMDSDSIADTIKSFFPVASTQQSYHHQPPSRGNTQNQDLLRLSLQSFQNGPPFPNQTEPALFSGQSNNQLAFDSSTASWEQSHQSPEFGKIQRLVSWNNVGAAESAGSTGGFVFASPSSLHPVYSQSQLLSQRGPLQSINTPMIRAWFDPHHHHHHHQQSMTTDDLHHHHPYHIPPGIHQSAIPGIAFASSGEFSGFRIPARFQGEQEEHGGDNKPSSASSDSRH
chain 2: B1 chain 2
B3: AD-TCP10 [Arabidopsis] / BD-COP1 [Arabidopsis] (parent complex)
chain 1: MGLKGYSVGEGGGEIVEVQGGHIIRATGRKDRHSKVFTSKGPRDRRVRLSAHTAIQFYDVQDRLGYDRPSKAVDWLIKKAKTAIDKLELGETTTTTTRQEPVNTKPESPTLVFQRENNDQTQFVAANLDPEDAMKTFFPATTTTNGGGGTNINFQNYPHQDDNNMVSRTTTPPPNLSQDLGLSLHPFQGNNNTVVVPETNNFTTTHFDTFGRISGWNHHDLTMTSSSSSEHQQQEQEERSNGGFMVNHHPHHHHHQPSMMTLLNSQQQQVFLGGQQQQQQRGTLQSSLFPHSFRSWDHHQTTSDHHHHQNQASSMFASSSQYGSHGMMMMQGLSFPNTTRLLHGEEATQPNSSSSPPNSHL
chain 2: B1 chain 2

Variants of B1 are the subject of the first assay. In words: Y2H assay (β-galactosidase activity); parent: 15; read off a plot.
For the variant chain 2 W467A, the response was about 2.1 Miller units.

Another assay covers variants of B1. Description: Y2H assay (β-galactosidase activity); parent: 21; read off a plot.
As for chain 2 F595A, the response was about 3.6 Miller units.

Variants of B2 are the subject of a further assay. In words: Y2H assay (β-galactosidase activity); parent: 3; read off a plot.
As for chain 2 W467A, the response is about 0.86 Miller units.

Variants of B2 are the subject of another assay. In words: Y2H assay (β-galactosidase activity); parent: 2.7; read off a plot.
For chain 2 F595A, the response was about 0.86 Miller units.

In another assay the parent is B3. In words: Y2H assay (β-galactosidase activity); parent: 0.92; read off a plot.
Take chain 1 V196A, chain 1 P197A: the response was about 1.1 Miller units.

These data come from article PMC12107181 (2025).
